Measurements published in patent US20180273587A1 (AILERON THERAPEUTICS, published 2018).
Positions of bridges follow the written chain, without caps; N, C: chain ends. Non-standard residues stand in square brackets, D forms with d. hPhe = N[C@@H](CCc1ccccc1)C(=O)O; R8 = C=CCCCCCC[C@@](C)(N)C(=O)O; Cha = N[C@@H](CC1CCCCC1)C(=O)O; S5 = C=CCCC[C@](C)(N)C(=O)O

Experiments:
Test in all cases: Ki; method not stated; unit not printed (nM per Table 6)
[1] = molecular target: T1, MCL-1 (UniProt Q07820 172-327, limits assumed)
T1 construct: Target of the Ki columns; also called Myeloid cell leukemia 1
T1 sequence (Q07820 172-327 limits assumed): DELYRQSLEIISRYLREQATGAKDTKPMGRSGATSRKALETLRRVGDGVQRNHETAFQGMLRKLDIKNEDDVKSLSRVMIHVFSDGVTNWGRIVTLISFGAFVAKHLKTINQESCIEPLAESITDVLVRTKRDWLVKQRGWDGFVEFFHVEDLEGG

[2] = molecular target: T2, BCL-XL (UniProt Q07817 1-209)
T2 construct: Target of the Ki columns
T2 sequence (Q07817 1-209): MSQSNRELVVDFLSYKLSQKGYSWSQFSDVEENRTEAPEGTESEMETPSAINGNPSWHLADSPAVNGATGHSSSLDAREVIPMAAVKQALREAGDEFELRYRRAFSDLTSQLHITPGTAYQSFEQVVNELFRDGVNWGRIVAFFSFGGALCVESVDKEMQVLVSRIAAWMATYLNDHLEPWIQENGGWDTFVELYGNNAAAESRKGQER

[3] = molecular target: T3, BCL-2 (UniProt P10415 1-217, limits assumed)
T3 construct: Target of the Ki columns
T3 sequence (P10415 1-217 limits assumed): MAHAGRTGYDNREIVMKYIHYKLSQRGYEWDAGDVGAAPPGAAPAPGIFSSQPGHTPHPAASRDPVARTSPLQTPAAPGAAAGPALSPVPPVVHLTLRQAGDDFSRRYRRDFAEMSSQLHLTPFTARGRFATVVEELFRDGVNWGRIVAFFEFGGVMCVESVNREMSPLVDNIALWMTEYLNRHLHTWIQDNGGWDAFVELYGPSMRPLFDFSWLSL

Binder | Ki [1] | Ki [2] | Ki [3]
Ac-IWIAQALR[R8]IGDAFN[S5]YLA-NH2 (staple 9-16; SMILES CC[C@H](C)[C@H](NC(C)=O)C(=O)N[C@@H](Cc1c[nH]c2ccccc12)C(=O)N[C@H](C(=O)N[C@@H](C)C(=O)N[C@@H](CCC(N)=O)C(=O)N[C@@H](C)C(=O)N[C@@H](CC(C)C)C(=O)N[C@@H](CCCNC(=N)N)C(=O)N[C@]1(C)CCCCCCC=CCCC[C@@](C)(C(=O)N[C@@H](Cc2ccc(O)cc2)C(=O)N[C@@H](CC(C)C)C(=O)N[C@@H](C)C(N)=O)NC(=O)[C@H](CC(N)=O)NC(=O)[C@H](Cc2ccccc2)NC(=O)[C@H](C)NC(=O)[C@H](CC(=O)O)NC(=O)CNC(=O)[C@H]([C@@H](C)CC)NC1=O)[C@@H](C)CC) [SEQ ID NO: 1755] | 23.4 nM | 9 nM | 18.9 nM
Ac-IWIAQALR[R8]IGDAFN[S5]Y[Cha]A-NH2 (staple 9-16; SMILES CC[C@H](C)[C@H](NC(C)=O)C(=O)N[C@@H](Cc1c[nH]c2ccccc12)C(=O)N[C@H](C(=O)N[C@@H](C)C(=O)N[C@@H](CCC(N)=O)C(=O)N[C@@H](C)C(=O)N[C@@H](CC(C)C)C(=O)N[C@@H](CCCNC(=N)N)C(=O)N[C@]1(C)CCCCCCC=CCCC[C@@](C)(C(=O)N[C@@H](Cc2ccc(O)cc2)C(=O)N[C@@H](CC2CCCCC2)C(=O)N[C@@H](C)C(N)=O)NC(=O)[C@H](CC(N)=O)NC(=O)[C@H](Cc2ccccc2)NC(=O)[C@H](C)NC(=O)[C@H](CC(=O)O)NC(=O)CNC(=O)[C@H]([C@@H](C)CC)NC1=O)[C@@H](C)CC) [SEQ ID NO: 1756] | 24.1 nM | 8.6 nM | 28.9 nM

Stronger by Ki [1], values ahead:

Ki [1] | Ki [2] | Ki [3] | Binder
3.9 nM | 15.4 nM | 23.5 nM | Ac-IWIAQALR[R8]IGDAFN[S5]YWA-NH2 (staple 9-16; SMILES CC[C@H](C)[C@H](NC(C)=O)C(=O)N[C@@H](Cc1c[nH]c2ccccc12)C(=O)N[C@H](C(=O)N[C@@H](C)C(=O)N[C@@H](CCC(N)=O)C(=O)N[C@@H](C)C(=O)N[C@@H](CC(C)C)C(=O)N[C@@H](CCCNC(=N)N)C(=O)N[C@]1(C)CCCCCCC=CCCC[C@@](C)(C(=O)N[C@@H](Cc2ccc(O)cc2)C(=O)N[C@@H](Cc2c[nH]c3ccccc23)C(=O)N[C@@H](C)C(N)=O)NC(=O)[C@H](CC(N)=O)NC(=O)[C@H](Cc2ccccc2)NC(=O)[C@H](C)NC(=O)[C@H](CC(=O)O)NC(=O)CNC(=O)[C@H]([C@@H](C)CC)NC1=O)[C@@H](C)CC) [SEQ ID NO: 1758]
8 nM | 12.1 nM | 30.7 nM | Ac-IWIAQALR[R8]IGDAFN[S5]Y[hPhe]A-NH2 (staple 9-16; SMILES CC[C@H](C)[C@H](NC(C)=O)C(=O)N[C@@H](Cc1c[nH]c2ccccc12)C(=O)N[C@H](C(=O)N[C@@H](C)C(=O)N[C@@H](CCC(N)=O)C(=O)N[C@@H](C)C(=O)N[C@@H](CC(C)C)C(=O)N[C@@H](CCCNC(=N)N)C(=O)N[C@]1(C)CCCCCCC=CCCC[C@@](C)(C(=O)N[C@@H](Cc2ccc(O)cc2)C(=O)N[C@@H](CCc2ccccc2)C(=O)N[C@@H](C)C(N)=O)NC(=O)[C@H](CC(N)=O)NC(=O)[C@H](Cc2ccccc2)NC(=O)[C@H](C)NC(=O)[C@H](CC(=O)O)NC(=O)CNC(=O)[C@H]([C@@H](C)CC)NC1=O)[C@@H](C)CC) [SEQ ID NO: 1757]
